We go through 20 molecules from patent publication US20210388087A1 (Chugai, published 2021).

Sequences and labels used below:
T1: Human CD3eg linker (human)
T1 construct: single-chain construct; also called recombinant human CD3
T1 chain: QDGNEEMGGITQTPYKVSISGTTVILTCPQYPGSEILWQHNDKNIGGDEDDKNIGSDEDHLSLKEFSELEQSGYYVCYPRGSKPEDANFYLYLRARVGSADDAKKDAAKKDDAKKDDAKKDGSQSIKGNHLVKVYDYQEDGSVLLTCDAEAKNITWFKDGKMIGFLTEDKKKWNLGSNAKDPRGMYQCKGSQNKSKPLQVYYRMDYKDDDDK

B1: dBBDu183H A102N/dBBDu072L (antibody, name in Kabat numbering, V domains shown)
VH: QVQLVESGGGLVQPGRSLRLSCAASGFTFSNAWMHWVRQAPGKGLEWVAQIKDKGNAYAAYYAPSVKGRFTISRDDSKNSIYLQMNSLKTEDTAVYYCHYVHYASASTVLPAFGVDNWGQGTTVTVSS
VL: DIVMTQSPLSLPVTPGEPASISCQASQELVHMNRNTYLHWYQQKPGQAPRLLIYKVSNRFPGVPDRFSGSGSGTDFTLKISRVEAEDVGVYYCAQGTSVPFTFGQGTKLEIK
B2: dBBDu183H D101W/dBBDu072L (antibody, name in Kabat numbering, V domains shown)
VH: QVQLVESGGGLVQPGRSLRLSCAASGFTFSNAWMHWVRQAPGKGLEWVAQIKDKGNAYAAYYAPSVKGRFTISRDDSKNSIYLQMNSLKTEDTAVYYCHYVHYASASTVLPAFGVWAWGQGTTVTVSS
VL: DIVMTQSPLSLPVTPGEPASISCQASQELVHMNRNTYLHWYQQKPGQAPRLLIYKVSNRFPGVPDRFSGSGSGTDFTLKISRVEAEDVGVYYCAQGTSVPFTFGQGTKLEIK
B3: dBBDu183H A102S/dBBDu072L (antibody, name in Kabat numbering, V domains shown)
VH: QVQLVESGGGLVQPGRSLRLSCAASGFTFSNAWMHWVRQAPGKGLEWVAQIKDKGNAYAAYYAPSVKGRFTISRDDSKNSIYLQMNSLKTEDTAVYYCHYVHYASASTVLPAFGVDSWGQGTTVTVSS
VL: DIVMTQSPLSLPVTPGEPASISCQASQELVHMNRNTYLHWYQQKPGQAPRLLIYKVSNRFPGVPDRFSGSGSGTDFTLKISRVEAEDVGVYYCAQGTSVPFTFGQGTKLEIK
B4: dBBDu183H D101V/dBBDu072L (antibody, name in Kabat numbering, V domains shown)
VH: QVQLVESGGGLVQPGRSLRLSCAASGFTFSNAWMHWVRQAPGKGLEWVAQIKDKGNAYAAYYAPSVKGRFTISRDDSKNSIYLQMNSLKTEDTAVYYCHYVHYASASTVLPAFGVVAWGQGTTVTVSS
VL: DIVMTQSPLSLPVTPGEPASISCQASQELVHMNRNTYLHWYQQKPGQAPRLLIYKVSNRFPGVPDRFSGSGSGTDFTLKISRVEAEDVGVYYCAQGTSVPFTFGQGTKLEIK
B5: dBBDu183H A102T/dBBDu072L (antibody, name in Kabat numbering, V domains shown)
VH: QVQLVESGGGLVQPGRSLRLSCAASGFTFSNAWMHWVRQAPGKGLEWVAQIKDKGNAYAAYYAPSVKGRFTISRDDSKNSIYLQMNSLKTEDTAVYYCHYVHYASASTVLPAFGVDTWGQGTTVTVSS
VL: DIVMTQSPLSLPVTPGEPASISCQASQELVHMNRNTYLHWYQQKPGQAPRLLIYKVSNRFPGVPDRFSGSGSGTDFTLKISRVEAEDVGVYYCAQGTSVPFTFGQGTKLEIK
B6: dBBDu183H D101G/dBBDu072L (antibody, name in Kabat numbering, V domains shown)
VH: QVQLVESGGGLVQPGRSLRLSCAASGFTFSNAWMHWVRQAPGKGLEWVAQIKDKGNAYAAYYAPSVKGRFTISRDDSKNSIYLQMNSLKTEDTAVYYCHYVHYASASTVLPAFGVGAWGQGTTVTVSS
VL: DIVMTQSPLSLPVTPGEPASISCQASQELVHMNRNTYLHWYQQKPGQAPRLLIYKVSNRFPGVPDRFSGSGSGTDFTLKISRVEAEDVGVYYCAQGTSVPFTFGQGTKLEIK
B7: dBBDu183H D101T/dBBDu072L (antibody, name in Kabat numbering, V domains shown)
VH: QVQLVESGGGLVQPGRSLRLSCAASGFTFSNAWMHWVRQAPGKGLEWVAQIKDKGNAYAAYYAPSVKGRFTISRDDSKNSIYLQMNSLKTEDTAVYYCHYVHYASASTVLPAFGVTAWGQGTTVTVSS
VL: DIVMTQSPLSLPVTPGEPASISCQASQELVHMNRNTYLHWYQQKPGQAPRLLIYKVSNRFPGVPDRFSGSGSGTDFTLKISRVEAEDVGVYYCAQGTSVPFTFGQGTKLEIK
B8: dBBDu183H D101E/dBBDu072L (antibody, name in Kabat numbering, V domains shown)
VH: QVQLVESGGGLVQPGRSLRLSCAASGFTFSNAWMHWVRQAPGKGLEWVAQIKDKGNAYAAYYAPSVKGRFTISRDDSKNSIYLQMNSLKTEDTAVYYCHYVHYASASTVLPAFGVEAWGQGTTVTVSS
VL: DIVMTQSPLSLPVTPGEPASISCQASQELVHMNRNTYLHWYQQKPGQAPRLLIYKVSNRFPGVPDRFSGSGSGTDFTLKISRVEAEDVGVYYCAQGTSVPFTFGQGTKLEIK
B9: dBBDu183H D101F/dBBDu072L (antibody, name in Kabat numbering, V domains shown)
VH: QVQLVESGGGLVQPGRSLRLSCAASGFTFSNAWMHWVRQAPGKGLEWVAQIKDKGNAYAAYYAPSVKGRFTISRDDSKNSIYLQMNSLKTEDTAVYYCHYVHYASASTVLPAFGVFAWGQGTTVTVSS
VL: DIVMTQSPLSLPVTPGEPASISCQASQELVHMNRNTYLHWYQQKPGQAPRLLIYKVSNRFPGVPDRFSGSGSGTDFTLKISRVEAEDVGVYYCAQGTSVPFTFGQGTKLEIK
B10: dBBDu183H D101S/dBBDu072L (antibody, name in Kabat numbering, V domains shown)
VH: QVQLVESGGGLVQPGRSLRLSCAASGFTFSNAWMHWVRQAPGKGLEWVAQIKDKGNAYAAYYAPSVKGRFTISRDDSKNSIYLQMNSLKTEDTAVYYCHYVHYASASTVLPAFGVSAWGQGTTVTVSS
VL: DIVMTQSPLSLPVTPGEPASISCQASQELVHMNRNTYLHWYQQKPGQAPRLLIYKVSNRFPGVPDRFSGSGSGTDFTLKISRVEAEDVGVYYCAQGTSVPFTFGQGTKLEIK
B11: dBBDu183H D101K/dBBDu072L (antibody, name in Kabat numbering, V domains shown)
VH: QVQLVESGGGLVQPGRSLRLSCAASGFTFSNAWMHWVRQAPGKGLEWVAQIKDKGNAYAAYYAPSVKGRFTISRDDSKNSIYLQMNSLKTEDTAVYYCHYVHYASASTVLPAFGVKAWGQGTTVTVSS
VL: DIVMTQSPLSLPVTPGEPASISCQASQELVHMNRNTYLHWYQQKPGQAPRLLIYKVSNRFPGVPDRFSGSGSGTDFTLKISRVEAEDVGVYYCAQGTSVPFTFGQGTKLEIK
B12: dBBDu183H D101H/dBBDu072L (antibody, name in Kabat numbering, V domains shown)
VH: QVQLVESGGGLVQPGRSLRLSCAASGFTFSNAWMHWVRQAPGKGLEWVAQIKDKGNAYAAYYAPSVKGRFTISRDDSKNSIYLQMNSLKTEDTAVYYCHYVHYASASTVLPAFGVHAWGQGTTVTVSS
VL: DIVMTQSPLSLPVTPGEPASISCQASQELVHMNRNTYLHWYQQKPGQAPRLLIYKVSNRFPGVPDRFSGSGSGTDFTLKISRVEAEDVGVYYCAQGTSVPFTFGQGTKLEIK
B13: dBBDu183H A102R/dBBDu072L (antibody, name in Kabat numbering, V domains shown)
VH: QVQLVESGGGLVQPGRSLRLSCAASGFTFSNAWMHWVRQAPGKGLEWVAQIKDKGNAYAAYYAPSVKGRFTISRDDSKNSIYLQMNSLKTEDTAVYYCHYVHYASASTVLPAFGVDRWGQGTTVTVSS
VL: DIVMTQSPLSLPVTPGEPASISCQASQELVHMNRNTYLHWYQQKPGQAPRLLIYKVSNRFPGVPDRFSGSGSGTDFTLKISRVEAEDVGVYYCAQGTSVPFTFGQGTKLEIK
B14: dBBDu183H A102Y/dBBDu072L (antibody, name in Kabat numbering, V domains shown)
VH: QVQLVESGGGLVQPGRSLRLSCAASGFTFSNAWMHWVRQAPGKGLEWVAQIKDKGNAYAAYYAPSVKGRFTISRDDSKNSIYLQMNSLKTEDTAVYYCHYVHYASASTVLPAFGVDYWGQGTTVTVSS
VL: DIVMTQSPLSLPVTPGEPASISCQASQELVHMNRNTYLHWYQQKPGQAPRLLIYKVSNRFPGVPDRFSGSGSGTDFTLKISRVEAEDVGVYYCAQGTSVPFTFGQGTKLEIK
B15: dBBDu183H A102W/dBBDu072L (antibody, name in Kabat numbering, V domains shown)
VH: QVQLVESGGGLVQPGRSLRLSCAASGFTFSNAWMHWVRQAPGKGLEWVAQIKDKGNAYAAYYAPSVKGRFTISRDDSKNSIYLQMNSLKTEDTAVYYCHYVHYASASTVLPAFGVDWWGQGTTVTVSS
VL: DIVMTQSPLSLPVTPGEPASISCQASQELVHMNRNTYLHWYQQKPGQAPRLLIYKVSNRFPGVPDRFSGSGSGTDFTLKISRVEAEDVGVYYCAQGTSVPFTFGQGTKLEIK
B16: dBBDu183H A102V/dBBDu072L (antibody, name in Kabat numbering, V domains shown)
VH: QVQLVESGGGLVQPGRSLRLSCAASGFTFSNAWMHWVRQAPGKGLEWVAQIKDKGNAYAAYYAPSVKGRFTISRDDSKNSIYLQMNSLKTEDTAVYYCHYVHYASASTVLPAFGVDVWGQGTTVTVSS
VL: DIVMTQSPLSLPVTPGEPASISCQASQELVHMNRNTYLHWYQQKPGQAPRLLIYKVSNRFPGVPDRFSGSGSGTDFTLKISRVEAEDVGVYYCAQGTSVPFTFGQGTKLEIK
B17: dBBDu183H D101N/dBBDu072L (antibody, name in Kabat numbering, V domains shown)
VH: QVQLVESGGGLVQPGRSLRLSCAASGFTFSNAWMHWVRQAPGKGLEWVAQIKDKGNAYAAYYAPSVKGRFTISRDDSKNSIYLQMNSLKTEDTAVYYCHYVHYASASTVLPAFGVNAWGQGTTVTVSS
VL: DIVMTQSPLSLPVTPGEPASISCQASQELVHMNRNTYLHWYQQKPGQAPRLLIYKVSNRFPGVPDRFSGSGSGTDFTLKISRVEAEDVGVYYCAQGTSVPFTFGQGTKLEIK
B18: dBBDu183H D101R/dBBDu072L (antibody, name in Kabat numbering, V domains shown)
VH: QVQLVESGGGLVQPGRSLRLSCAASGFTFSNAWMHWVRQAPGKGLEWVAQIKDKGNAYAAYYAPSVKGRFTISRDDSKNSIYLQMNSLKTEDTAVYYCHYVHYASASTVLPAFGVRAWGQGTTVTVSS
VL: DIVMTQSPLSLPVTPGEPASISCQASQELVHMNRNTYLHWYQQKPGQAPRLLIYKVSNRFPGVPDRFSGSGSGTDFTLKISRVEAEDVGVYYCAQGTSVPFTFGQGTKLEIK
B19: dBBDu183H A102Q/dBBDu072L (antibody, name in Kabat numbering, V domains shown)
VH: QVQLVESGGGLVQPGRSLRLSCAASGFTFSNAWMHWVRQAPGKGLEWVAQIKDKGNAYAAYYAPSVKGRFTISRDDSKNSIYLQMNSLKTEDTAVYYCHYVHYASASTVLPAFGVDQWGQGTTVTVSS
VL: DIVMTQSPLSLPVTPGEPASISCQASQELVHMNRNTYLHWYQQKPGQAPRLLIYKVSNRFPGVPDRFSGSGSGTDFTLKISRVEAEDVGVYYCAQGTSVPFTFGQGTKLEIK
B20: dBBDu183H D101Q/dBBDu072L (antibody, name in Kabat numbering, V domains shown)
VH: QVQLVESGGGLVQPGRSLRLSCAASGFTFSNAWMHWVRQAPGKGLEWVAQIKDKGNAYAAYYAPSVKGRFTISRDDSKNSIYLQMNSLKTEDTAVYYCHYVHYASASTVLPAFGVQAWGQGTTVTVSS
VL: DIVMTQSPLSLPVTPGEPASISCQASQELVHMNRNTYLHWYQQKPGQAPRLLIYKVSNRFPGVPDRFSGSGSGTDFTLKISRVEAEDVGVYYCAQGTSVPFTFGQGTKLEIK

In this experiment the target is T1, Human CD3eg linker. Description: SPR, vs unmutated H183/L072.
For B1, the “fold change of affinity” value was 1.5 fold.

In the case of B2, the “fold change of affinity” value is 0 fold.

As to B3, the “fold change of affinity” value came to 1.9 fold.

B4: the “fold change of affinity” value was 0.5 fold.

As to B5, the “fold change of affinity” value was determined as 0.5 fold.

Regarding B6, the “fold change of affinity” value worked out at 0.4 fold.

Turning to B7, the “fold change of affinity” value came to 0.2 fold.

Consider B8, for which the “fold change of affinity” value came out at 0 fold.

As for B9, the “fold change of affinity” value worked out at 2.5 fold.

With B10, the “fold change of affinity” value is 0.6 fold.

As to B11, the “fold change of affinity” value was found to be 0 fold.

For the molecule B12, the “fold change of affinity” value was 0.4 fold.

With B13, the “fold change of affinity” value came to 1 fold.

On to B14, for which the “fold change of affinity” value was 2.5 fold.

Consider B15, for which the “fold change of affinity” value amounted to 3.3 fold.

Turning to B16, the “fold change of affinity” value was 1 fold.

Regarding B17, the “fold change of affinity” value was 1.1 fold.

As to B18, the “fold change of affinity” value is 0 fold.

For the molecule B19, the “fold change of affinity” value came to 1.3 fold.

In the case of B20, the “fold change of affinity” value turned out to be 0 fold.
